Measured values published in patent publication US10925867B2, “Immunotherapeutic dosing regimens comprising pomalidomide and an anti-CS1 antibody for treating cancer” (Bristol-Myers Squibb Company, priority 2015, dated 2021).

Molecular target: T1, SLAMF7 (Homo sapiens, UniProt Q9NQ25)
T1 construct: endogenous in cells; host or cells: bone marrow plasma (myeloma) cells from multiple myeloma subjects treated with elotuzumab plus lenalidomide/dexamethasone
Test: Saturation of SLAMF7 on bone marrow plasma cells, Phase 2 study of elotuzumab and lenalidomide/dexamethasone
Format: in vivo
Conditions: doses ≥10 mg/kg
Procedure: FIG. 7. Saturation of SLAMF7 Target on Bone Marrow Myeloma Samples from Subjects Treated in a Phase 2 Study of Elotuzumab and Lenalidomide/Dexamethasone (HuLuc63).
Following elotuzumab dosing of 10 and 20 mg/kg in combination with lenalidomide, the observed steady-state Cmin values consistently remained above 70 μg/mL, the minimum efficacious trough concentrations (Lonial et. al., J Clin Oncol. 30(16):1953-1959. (2012)). […] Given the lack of difference in efficacy, safety, PK and SLAMF7 saturation between 10 and 20 mg/kg, the 10 mg/kg weekly for the first 2 cycles followed by 20 mg/kg monthly thereafter, was selected to improve patient convenience and compliance.

T1 sequence (Q9NQ25 23-335): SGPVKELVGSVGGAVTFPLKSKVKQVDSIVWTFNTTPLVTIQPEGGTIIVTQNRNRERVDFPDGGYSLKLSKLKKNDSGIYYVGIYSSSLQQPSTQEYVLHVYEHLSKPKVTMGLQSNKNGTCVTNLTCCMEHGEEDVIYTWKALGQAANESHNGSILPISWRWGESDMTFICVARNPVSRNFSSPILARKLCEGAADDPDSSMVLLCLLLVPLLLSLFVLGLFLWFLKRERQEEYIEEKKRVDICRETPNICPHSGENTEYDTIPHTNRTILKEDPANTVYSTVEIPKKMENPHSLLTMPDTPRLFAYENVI

For “Elotuzumab: humanized monoclonal IgG1 antibody directed against CS-1; VL SEQ ID NO:1, VH SEQ ID NO:2”, the “saturation of SLAMF7 on bone marrow plasma cells” value was “complete saturation”.
